Target: LRP1 minireceptor of domain IV, mLRP4 (UniProt Q07954)
Assay: flow cytometry on cells

UniProt Q07954, sequence (Q07954 20-4544): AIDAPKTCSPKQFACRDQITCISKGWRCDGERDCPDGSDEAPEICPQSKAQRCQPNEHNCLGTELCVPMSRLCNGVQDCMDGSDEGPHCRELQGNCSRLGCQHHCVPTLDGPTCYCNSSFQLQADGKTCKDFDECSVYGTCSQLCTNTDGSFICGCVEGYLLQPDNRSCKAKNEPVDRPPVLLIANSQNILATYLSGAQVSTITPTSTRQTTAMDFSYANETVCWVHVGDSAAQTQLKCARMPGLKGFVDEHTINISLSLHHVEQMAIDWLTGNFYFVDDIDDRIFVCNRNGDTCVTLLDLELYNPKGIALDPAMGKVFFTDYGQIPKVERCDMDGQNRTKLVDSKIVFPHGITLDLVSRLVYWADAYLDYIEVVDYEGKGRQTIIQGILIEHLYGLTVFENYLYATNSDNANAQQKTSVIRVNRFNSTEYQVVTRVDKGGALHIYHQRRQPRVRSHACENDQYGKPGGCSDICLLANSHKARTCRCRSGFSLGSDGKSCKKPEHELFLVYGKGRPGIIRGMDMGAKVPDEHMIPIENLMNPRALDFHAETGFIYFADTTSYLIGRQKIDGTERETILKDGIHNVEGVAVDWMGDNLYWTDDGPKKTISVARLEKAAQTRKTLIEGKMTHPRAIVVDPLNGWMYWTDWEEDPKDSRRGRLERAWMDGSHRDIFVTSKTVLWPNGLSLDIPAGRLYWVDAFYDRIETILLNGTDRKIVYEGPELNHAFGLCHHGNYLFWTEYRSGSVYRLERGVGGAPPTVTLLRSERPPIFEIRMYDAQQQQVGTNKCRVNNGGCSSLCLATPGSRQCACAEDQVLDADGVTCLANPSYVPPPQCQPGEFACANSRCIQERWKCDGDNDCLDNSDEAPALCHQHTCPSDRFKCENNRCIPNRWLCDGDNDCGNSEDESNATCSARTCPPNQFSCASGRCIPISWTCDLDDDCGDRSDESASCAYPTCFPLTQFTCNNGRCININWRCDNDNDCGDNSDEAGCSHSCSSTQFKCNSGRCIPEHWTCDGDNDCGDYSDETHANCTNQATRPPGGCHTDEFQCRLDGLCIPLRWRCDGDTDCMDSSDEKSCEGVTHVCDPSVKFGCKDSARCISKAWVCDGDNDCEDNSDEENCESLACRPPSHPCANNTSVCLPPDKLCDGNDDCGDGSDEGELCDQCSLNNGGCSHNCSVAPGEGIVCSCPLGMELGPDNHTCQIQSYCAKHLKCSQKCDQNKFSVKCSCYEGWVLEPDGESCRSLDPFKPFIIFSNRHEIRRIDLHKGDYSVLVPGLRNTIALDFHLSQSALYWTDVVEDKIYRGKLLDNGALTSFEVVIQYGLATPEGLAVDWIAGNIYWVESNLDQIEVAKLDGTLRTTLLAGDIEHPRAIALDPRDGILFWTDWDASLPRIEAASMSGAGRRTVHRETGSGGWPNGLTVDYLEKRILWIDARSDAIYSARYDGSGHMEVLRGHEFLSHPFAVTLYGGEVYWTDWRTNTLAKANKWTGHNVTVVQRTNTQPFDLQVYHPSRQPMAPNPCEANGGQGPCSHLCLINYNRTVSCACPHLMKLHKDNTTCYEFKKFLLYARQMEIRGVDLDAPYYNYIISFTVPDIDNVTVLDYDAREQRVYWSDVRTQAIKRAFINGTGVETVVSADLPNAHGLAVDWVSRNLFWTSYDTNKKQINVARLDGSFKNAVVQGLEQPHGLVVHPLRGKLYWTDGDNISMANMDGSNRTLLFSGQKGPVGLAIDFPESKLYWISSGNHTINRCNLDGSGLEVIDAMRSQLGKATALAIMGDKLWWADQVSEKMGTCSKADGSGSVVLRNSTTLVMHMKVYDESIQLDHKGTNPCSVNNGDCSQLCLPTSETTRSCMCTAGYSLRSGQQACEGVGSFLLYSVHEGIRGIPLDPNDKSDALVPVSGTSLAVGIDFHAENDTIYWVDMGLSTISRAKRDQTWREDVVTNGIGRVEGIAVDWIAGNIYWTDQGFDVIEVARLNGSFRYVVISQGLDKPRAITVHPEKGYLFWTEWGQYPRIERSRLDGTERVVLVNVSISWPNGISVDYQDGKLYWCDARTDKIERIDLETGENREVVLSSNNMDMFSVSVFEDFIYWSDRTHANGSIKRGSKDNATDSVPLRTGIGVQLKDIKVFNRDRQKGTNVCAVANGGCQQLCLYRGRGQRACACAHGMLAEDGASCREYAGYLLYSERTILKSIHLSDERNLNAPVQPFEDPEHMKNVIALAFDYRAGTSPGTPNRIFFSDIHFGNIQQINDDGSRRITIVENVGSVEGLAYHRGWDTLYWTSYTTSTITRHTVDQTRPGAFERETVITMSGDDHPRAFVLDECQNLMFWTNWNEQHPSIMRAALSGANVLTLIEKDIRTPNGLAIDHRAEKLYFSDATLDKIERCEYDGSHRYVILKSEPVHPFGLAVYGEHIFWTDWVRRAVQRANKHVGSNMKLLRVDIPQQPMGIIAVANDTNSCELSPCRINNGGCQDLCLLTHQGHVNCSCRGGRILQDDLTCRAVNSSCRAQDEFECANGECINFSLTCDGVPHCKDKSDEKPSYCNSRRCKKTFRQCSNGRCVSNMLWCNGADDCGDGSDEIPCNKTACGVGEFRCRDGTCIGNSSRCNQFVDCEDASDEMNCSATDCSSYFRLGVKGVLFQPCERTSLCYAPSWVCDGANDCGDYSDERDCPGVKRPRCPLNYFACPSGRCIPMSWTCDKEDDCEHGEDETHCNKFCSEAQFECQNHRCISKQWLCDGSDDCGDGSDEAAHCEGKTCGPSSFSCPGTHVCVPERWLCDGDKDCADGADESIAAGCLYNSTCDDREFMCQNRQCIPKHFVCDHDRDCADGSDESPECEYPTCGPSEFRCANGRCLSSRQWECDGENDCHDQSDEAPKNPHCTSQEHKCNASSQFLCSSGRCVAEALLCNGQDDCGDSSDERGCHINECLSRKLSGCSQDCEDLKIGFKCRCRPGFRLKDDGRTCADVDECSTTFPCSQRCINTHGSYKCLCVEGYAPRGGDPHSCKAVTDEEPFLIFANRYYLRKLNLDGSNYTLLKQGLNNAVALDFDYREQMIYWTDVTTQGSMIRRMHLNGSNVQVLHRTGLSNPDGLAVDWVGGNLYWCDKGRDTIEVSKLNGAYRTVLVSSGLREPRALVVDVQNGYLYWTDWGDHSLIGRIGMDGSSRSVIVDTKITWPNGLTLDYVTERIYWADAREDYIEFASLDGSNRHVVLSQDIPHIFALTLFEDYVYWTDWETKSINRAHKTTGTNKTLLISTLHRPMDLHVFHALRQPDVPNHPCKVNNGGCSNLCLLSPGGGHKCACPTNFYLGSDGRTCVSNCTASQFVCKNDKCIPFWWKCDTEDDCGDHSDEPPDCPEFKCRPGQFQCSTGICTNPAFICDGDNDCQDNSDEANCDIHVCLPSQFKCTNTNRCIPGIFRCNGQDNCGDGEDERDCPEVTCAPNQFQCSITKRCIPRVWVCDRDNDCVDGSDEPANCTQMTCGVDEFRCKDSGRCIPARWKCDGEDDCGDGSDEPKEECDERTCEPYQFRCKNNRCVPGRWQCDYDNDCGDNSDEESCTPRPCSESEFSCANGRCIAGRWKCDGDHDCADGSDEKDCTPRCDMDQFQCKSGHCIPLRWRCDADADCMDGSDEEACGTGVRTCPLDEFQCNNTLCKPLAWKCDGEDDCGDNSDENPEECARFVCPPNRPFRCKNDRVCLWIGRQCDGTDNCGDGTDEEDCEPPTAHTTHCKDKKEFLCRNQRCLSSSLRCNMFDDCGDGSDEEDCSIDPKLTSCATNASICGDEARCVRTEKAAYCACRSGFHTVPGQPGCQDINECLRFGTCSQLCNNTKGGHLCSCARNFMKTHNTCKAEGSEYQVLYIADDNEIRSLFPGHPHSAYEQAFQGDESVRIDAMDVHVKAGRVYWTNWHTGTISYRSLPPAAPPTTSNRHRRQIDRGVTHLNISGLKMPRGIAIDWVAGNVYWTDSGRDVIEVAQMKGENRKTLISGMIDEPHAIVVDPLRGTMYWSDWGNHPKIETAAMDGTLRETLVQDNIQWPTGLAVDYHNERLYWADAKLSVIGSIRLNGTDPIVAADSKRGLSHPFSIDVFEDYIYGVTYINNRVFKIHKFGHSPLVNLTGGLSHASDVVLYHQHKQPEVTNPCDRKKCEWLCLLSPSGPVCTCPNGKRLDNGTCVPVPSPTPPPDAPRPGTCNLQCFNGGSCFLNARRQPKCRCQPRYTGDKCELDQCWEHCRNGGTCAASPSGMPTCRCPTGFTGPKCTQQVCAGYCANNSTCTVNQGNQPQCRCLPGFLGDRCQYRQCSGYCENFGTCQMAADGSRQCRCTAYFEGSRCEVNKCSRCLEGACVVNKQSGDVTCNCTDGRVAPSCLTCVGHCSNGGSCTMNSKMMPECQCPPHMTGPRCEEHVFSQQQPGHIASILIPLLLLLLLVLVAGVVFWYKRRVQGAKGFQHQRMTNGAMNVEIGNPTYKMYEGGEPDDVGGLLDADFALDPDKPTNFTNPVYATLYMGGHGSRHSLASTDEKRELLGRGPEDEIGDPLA

Substance: Alexa488-labeled receptor-associated protein (RAP) (from UniProt P30533 35-357) (ligand)
- fold RAP binding against N2a-pcDNA3 cells (fold of N2a-pcDNA3 cells): 2.2
